Results: patent US12679878B2, “CRF2 receptor agonists and their use in therapy” (SANOFI, priority 2020, dated 2026)
Starred links: 1 amine or outer side, 2 acyl side, 3 side chain; linkers in the order of their positions; H or OH if unused. Non-standard residues stand in square brackets, D forms with d. Groups on a side chain read outwards from the residue. No end group written: not given here. *: point of attachment. C18 diacid = O=C(O)CCCCCCCCCCCCCCCCC(=O)*; γGlu = O=C(O)[C@H](CCC(=O)[*:2])N[*:1]; AEEA = NCCOCCOCC(=O)O; Aib = CC(C)(N)C(=O)O

Target: human corticotropin-releasing factor 2α (CRF2 α receptor) (human), Q13324
Experiment: cell-based or functional assay

B1: SEQ ID NO: 84 (peptide)
peptide: IVLSLDVPIKLK([AEEA-AEEA-γGlu-C18 diacid])QKLLEQEKQKKQREQAETNKQILAQV-NH2
modifications: N-terminus assumed
SMILES: CC[C@H](C)[C@H](N)C(=O)N[C@H](C(=O)N[C@@H](CC(C)C)C(=O)N[C@@H](CO)C(=O)N[C@@H](CC(C)C)C(=O)N[C@@H](CC(=O)O)C(=O)N[C@H](C(=O)N1CCC[C@H]1C(=O)N[C@H](C(=O)N[C@@H](CCCCN)C(=O)N[C@@H](CC(C)C)C(=O)N[C@@H](CCCCNC(=O)COCCOCCNC(=O)COCCOCCNC(=O)CC[C@H](NC(=O)CCCCCCCCCCCCCCCCC(=O)O)C(=O)O)C(=O)N[C@@H](CCC(N)=O)C(=O)N[C@@H](CCCCN)C(=O)N[C@@H](CC(C)C)C(=O)N[C@@H](CC(C)C)C(=O)N[C@@H](CCC(=O)O)C(=O)N[C@@H](CCC(N)=O)C(=O)N[C@@H](CCC(=O)O)C(=O)N[C@@H](CCCCN)C(=O)N[C@@H](CCC(N)=O)C(=O)N[C@@H](CCCCN)C(=O)N[C@@H](CCCCN)C(=O)N[C@@H](CCC(N)=O)C(=O)N[C@@H](CCCNC(=N)N)C(=O)N[C@@H](CCC(=O)O)C(=O)N[C@@H](CCC(N)=O)C(=O)N[C@@H](C)C(=O)N[C@@H](CCC(=O)O)C(=O)N[C@H](C(=O)N[C@@H](CC(N)=O)C(=O)N[C@@H](CCCCN)C(=O)N[C@@H](CCC(N)=O)C(=O)N[C@H](C(=O)N[C@@H](CC(C)C)C(=O)N[C@@H](C)C(=O)N[C@@H](CCC(N)=O)C(=O)N[C@H](C(N)=O)C(C)C)[C@@H](C)CC)[C@@H](C)O)[C@@H](C)CC)C(C)C)C(C)C
With B1 as the binder, how does the EC50 [nM], 0% HSA read?
Its EC50 [nM], 0% HSA is 1.85 nM.

And the EC50 [nM], 0.1% HSA?
Its EC50 [nM], 0.1% HSA is 61.7 nM.

B2: SEQ ID NO: 82 (peptide)
peptide: IVLSLDVPTKLK([AEEA-AEEA-γGlu-C18 diacid])QILLKQERQKK[Aib]REQAETNVRILERV-NH2
modifications: N-terminus assumed
SMILES: CC[C@H](C)[C@H](N)C(=O)N[C@H](C(=O)N[C@@H](CC(C)C)C(=O)N[C@@H](CO)C(=O)N[C@@H](CC(C)C)C(=O)N[C@@H](CC(=O)O)C(=O)N[C@H](C(=O)N1CCC[C@H]1C(=O)N[C@H](C(=O)N[C@@H](CCCCN)C(=O)N[C@@H](CC(C)C)C(=O)N[C@@H](CCCCNC(=O)COCCOCCNC(=O)COCCOCCNC(=O)CC[C@H](NC(=O)CCCCCCCCCCCCCCCCC(=O)O)C(=O)O)C(=O)N[C@@H](CCC(N)=O)C(=O)N[C@H](C(=O)N[C@@H](CC(C)C)C(=O)N[C@@H](CC(C)C)C(=O)N[C@@H](CCCCN)C(=O)N[C@@H](CCC(N)=O)C(=O)N[C@@H](CCC(=O)O)C(=O)N[C@@H](CCCNC(=N)N)C(=O)N[C@@H](CCC(N)=O)C(=O)N[C@@H](CCCCN)C(=O)N[C@@H](CCCCN)C(=O)NC(C)(C)C(=O)N[C@@H](CCCNC(=N)N)C(=O)N[C@@H](CCC(=O)O)C(=O)N[C@@H](CCC(N)=O)C(=O)N[C@@H](C)C(=O)N[C@@H](CCC(=O)O)C(=O)N[C@H](C(=O)N[C@@H](CC(N)=O)C(=O)N[C@H](C(=O)N[C@@H](CCCNC(=N)N)C(=O)N[C@H](C(=O)N[C@@H](CC(C)C)C(=O)N[C@@H](CCC(=O)O)C(=O)N[C@@H](CCCNC(=N)N)C(=O)N[C@H](C(N)=O)C(C)C)[C@@H](C)CC)C(C)C)[C@@H](C)O)[C@@H](C)CC)[C@@H](C)O)C(C)C)C(C)C
How did the EC50 [nM], 0% HSA turn out when B2 was run?
The EC50 [nM], 0% HSA was 10.1 nM.

B3: SEQ ID NO: 83 (peptide)
peptide: IVLSLD[dV]PIGLK([AEEA-AEEA-γGlu-C18 diacid])QILLKQERQKK[Aib]REQAETNKRILERV-NH2
modifications: N-terminus assumed
SMILES: CC[C@H](C)[C@H](N)C(=O)N[C@H](C(=O)N[C@@H](CC(C)C)C(=O)N[C@@H](CO)C(=O)N[C@@H](CC(C)C)C(=O)N[C@@H](CC(=O)O)C(=O)N[C@@H](C(=O)N1CCC[C@H]1C(=O)N[C@H](C(=O)NCC(=O)N[C@@H](CC(C)C)C(=O)N[C@@H](CCCCNC(=O)COCCOCCNC(=O)COCCOCCNC(=O)CC[C@H](NC(=O)CCCCCCCCCCCCCCCCC(=O)O)C(=O)O)C(=O)N[C@@H](CCC(N)=O)C(=O)N[C@H](C(=O)N[C@@H](CC(C)C)C(=O)N[C@@H](CC(C)C)C(=O)N[C@@H](CCCCN)C(=O)N[C@@H](CCC(N)=O)C(=O)N[C@@H](CCC(=O)O)C(=O)N[C@@H](CCCNC(=N)N)C(=O)N[C@@H](CCC(N)=O)C(=O)N[C@@H](CCCCN)C(=O)N[C@@H](CCCCN)C(=O)NC(C)(C)C(=O)N[C@@H](CCCNC(=N)N)C(=O)N[C@@H](CCC(=O)O)C(=O)N[C@@H](CCC(N)=O)C(=O)N[C@@H](C)C(=O)N[C@@H](CCC(=O)O)C(=O)N[C@H](C(=O)N[C@@H](CC(N)=O)C(=O)N[C@@H](CCCCN)C(=O)N[C@@H](CCCNC(=N)N)C(=O)N[C@H](C(=O)N[C@@H](CC(C)C)C(=O)N[C@@H](CCC(=O)O)C(=O)N[C@@H](CCCNC(=N)N)C(=O)N[C@H](C(N)=O)C(C)C)[C@@H](C)CC)[C@@H](C)O)[C@@H](C)CC)[C@@H](C)CC)C(C)C)C(C)C
Which EC50 [nM], 0% HSA does the source give for B3 here?
Its EC50 [nM], 0% HSA is 0.07 nM.

What about the EC50 [nM], 0.1% HSA of the same binder?
Its EC50 [nM], 0.1% HSA is 2.99 nM.
